The values below come from patent US11160866B2, “Biomaterials for delivery of blood extracts and methods of using same” (Mosaic Biosciences, Inc., priority 2012, dated 2021).

One assay deals with whole blood. Description: PDGF release in ACD-anticoagulated whole blood treated with activators (Example 10). The assay is classed as cell-based, human. The following applies: after 60 minutes. The procedure:
Whole blood was collected from a healthy volunteer by a certified phlebotomist into a 8.5 mL ACD-containing Vacutainer. 375 ul of 0.167 mM PAR1-AP in ultrapure water or 200 ul of 0.1 unit/microliter of thrombin (Zymogenetics) were injected into the vacutainers via a sterile 1 mL syringe; samples were gently mixed by inverting 10 times and incubated at ambient temperature for specified time. The samples were then centrifugated at 2,380×g for 5 minutes at ambient temperatures and ˜3 mL clear supernatants were collected from the top of each sample and transferred into sterile 15 mL conical tubes. Concentration of PDGF-BB in each sample was determined by ELISA (Quantikine kit, R&D Systems) according to the manufacturer's protocol.

For assay [1], the target named is T1, Collagenase (Matrix metalloproteinase I) (Homo sapiens, UniProt P03956).
T1 sequence (P03956 100-469): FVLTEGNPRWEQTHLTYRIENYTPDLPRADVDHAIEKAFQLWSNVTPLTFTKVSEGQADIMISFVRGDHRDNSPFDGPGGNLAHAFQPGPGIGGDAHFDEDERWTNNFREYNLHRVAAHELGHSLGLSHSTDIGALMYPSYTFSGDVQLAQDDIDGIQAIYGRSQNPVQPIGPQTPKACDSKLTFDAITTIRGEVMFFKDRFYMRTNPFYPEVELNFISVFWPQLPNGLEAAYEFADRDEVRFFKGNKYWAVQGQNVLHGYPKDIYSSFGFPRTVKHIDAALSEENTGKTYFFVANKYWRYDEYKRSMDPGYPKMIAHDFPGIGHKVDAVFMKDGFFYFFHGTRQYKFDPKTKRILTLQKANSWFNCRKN
The settings on record: cited from earlier work.

In the next assay the test system is platelets. In words: Selectively activated PRP and washed platelet releasates, PDGF-BB ELISA (Example 11). The assay is classed as cell-based, human. The following applies: PRP and WP preparations, Patients A and B. The protocol:
Fresh whole blood (WB) was collected into tubes containing appropriate levels of Anti-coagulant Citrate Dextrose (ACD) to prevent platelet activation and coagulation. WB samples were then split into 4 conical tubes, 50 ml WB+ACD per tube. Red Blood Cells (RBCs) were then removed by centrifuging the tubes at 3500 rpm for 10 minutes in a clinical centrifuge. Supernatants (approximately 25 ml) with some RBCs remaining were pooled into 2 conical tubes and centrifuged again at 3500 rpm for 10 minutes. Clear supernatants (plasma) were then transferred to new 50 ml conical, and Buffy Coat (BC) with some RBCs put into 15 ml conicals. […]
PRP and WPs were aliquotted into 1 ml volumes, and 4 tubes of PRP and 4 tubes of WPs were used for preparation of activated releasates: (1) no selective activation, in which no platelet activator was added (2) PAR1 activation, in which 20 ul of 500 uM PAR1 Activating Peptide (PAR1 AP) (SFLLRN, SEQ ID: 40) was added, (3) PAR4 activation, in which 20 ul of 500 uM PAR4 Activating Peptide (PAR4 AP) (AYPGKF, SEQ ID: 44) was added, and (4) ADP activation, to which 20 ul of 2.5 mM ADP (Adenosine-5′-diphosphate) was added. […] PDGF-BB levels were then measured by ELISA using a Human PDGF-BB Quantikine ELISA Kit (R&D Systems).

`Nc1ncnc2c1ncn2[C@@H]1O[C@H](COP(=O)(O)OP(=O)(O)O)[C@@H](O)[C@H]1O` [ADP, Adenosine-5′-diphosphate]: the Signs of coagulation entry in the assay on whole blood is “did not”.

Regarding GPQGIAGQ, the “kcat/Km relative to that of PQGIAG” value in assay [1] was 100%.

In the case of GPQGIASQ, the “kcat/Km relative to that of PQGIAG” value in assay [1] is 130%.

Consider GPQGIFGQ, for which, in assay [1], the “kcat/Km relative to that of PQGIAG” value is listed as >300%.

GPQGIWGQ: the “kcat/Km relative to that of PQGIAG” value in assay [1] is reported as >700%.

For the compound GPQGRAGQ, the “kcat/Km relative to that of PQGIAG” value in assay [1] is on record as <5%.

For GPQGVAGQ, in assay [1], the “kcat/Km relative to that of PQGIAG” value is listed as 9%.

GPVGIAGQ: in assay [1], the “kcat/Km relative to that of PQGIAG” value is 30%.

SFLLRN [PAR1-AP]: the “Release of PDGF-BB compared between activators” value in the assay on platelets is “greatest release of PDGF-BB”.

In the case of Thrombin, the Signs of coagulation result in the assay on whole blood is recorded as “some signs of coagulation”.
